In paper PMC9352680, “A comprehensive thermodynamic model for RNA binding by the Saccharomyces cerevisiae Pumilio protein PUF4”:
Positions count from the first letter of the chain named. Numbers in names are those of the source.

T1: PUF4 RNA-binding domain (Saccharomyces cerevisiae, UniProt P25339 537-888)
T1 sequence: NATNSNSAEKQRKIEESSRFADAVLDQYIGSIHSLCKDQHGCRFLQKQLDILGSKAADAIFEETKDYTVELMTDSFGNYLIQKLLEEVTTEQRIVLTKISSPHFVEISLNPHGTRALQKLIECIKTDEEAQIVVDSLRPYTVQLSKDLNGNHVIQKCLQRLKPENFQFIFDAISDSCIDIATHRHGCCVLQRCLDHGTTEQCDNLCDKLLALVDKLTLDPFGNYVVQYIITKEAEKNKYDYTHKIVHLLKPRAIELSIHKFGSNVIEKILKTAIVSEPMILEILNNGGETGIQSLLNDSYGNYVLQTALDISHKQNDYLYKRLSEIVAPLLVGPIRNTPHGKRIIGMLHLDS

B1: Id_ii_S2_P5E.3_K5.2_C5.2_[T-1G]_H5.2_A5.1_F5.1_T5.2_[T11G]_[A12T] (ssRNA)
RNA: UUUGAUUAAUAUGAUAUCGUUCUUUCUCGUAUAUUAUUAGUUUCUUUCUCGAUAUCAUAUUAAUCUUU
B2: Id_ii_S2_P5E.3_K5.2_C5.2_[T-1A]_H5.2_A5.1_F5.1_T5.2_[T11A]_[A12G] (ssRNA)
RNA: B1 RNA with G29A, G40A, U41G
B3: Id_ii_S2_P5E.3_K5.2_C5.2_[T-1G]_H5.2_A5.1_F5.1_T5.2_[T11A]_[A12C] (ssRNA)
RNA: B1 RNA with G40A, U41C
B4: Id_ii_S2_P5E.4_K5.3_C5.2_[C-2G]_[T-1C]_H5.3_A5.1_F5.1_T5.2_[T11C]_[A12T] (ssRNA)
RNA: B1 RNA with C28G, G29C, U30A, A31C, U32A, A33C, G40C
B5: Id_ii_S2_P5E.3_K5.2_C5.2_H5.2_A5.1_F5.1_T5.2_[T11C]_[A12C] (ssRNA)
RNA: B1 RNA with G29U, G40C, U41C
B6: Id_ii_S2_P5E.4_K5.3_C5.2_[C-2G]_[T-1C]_H5.3_A5.1_F5.1_T5.2_[T11C]_[A12G] (ssRNA)
RNA: B1 RNA with C28G, G29C, U30A, A31C, U32A, A33C, G40C, U41G
B7: Id_ii_S2_P5E.3_K5.2_C5.2_[T-1A]_H5.2_A5.1_F5.1_T5.2_[T11C] (ssRNA)
RNA: B1 RNA with G29A, G40C, U41A
B8: Id_ii_S2_P5E.3_K5.2_C5.2_H5.2_A5.1_F5.1_T5.2_[T11G]_[A12C] (ssRNA)
RNA: B1 RNA with G29U, U41C
B9: Id_ii_S2_P5E.3_K5.2_C5.2_H5.2_A5.1_F5.1_T5.2_[T11G]_[A12T] (ssRNA)
RNA: B1 RNA with G29U
B10: Id_ii_S2_P5E.3_K5.2_C5.2_[T-1A]_H5.2_A5.1_F5.1_T5.2_[T11G]_[A12C] (ssRNA)
RNA: B1 RNA with G29A, U41C
B11: Id_ii_S2_P5E.3_K5.2_C5.2_[T-1A]_H5.2_A5.1_F5.1_T5.2_[A12C] (ssRNA)
RNA: B1 RNA with G29A, G40U, U41C
B12: Id_ii_S2_P5E.4_K5.3_C5.2_[C-2G]_[T-1C]_H5.3_A5.1_F5.1_T5.2_[T11A]_[A12T] (ssRNA)
RNA: B1 RNA with C28G, G29C, U30A, A31C, U32A, A33C, G40A
B13: Id_ii_S2_P5E.3_K5.2_C5.2_H5.2_A5.1_F5.1_T5.2_[T11A]_[A12C] (ssRNA)
RNA: B1 RNA with G29U, G40A, U41C
B14: Id_ii_S2_P5E.3_K5.2_C5.2_[T-1A]_H5.2_A5.1_F5.1_T5.2_[T11C]_[A12C] (ssRNA)
RNA: B1 RNA with G29A, G40C, U41C
B15: Id_ii_S2_P5E.4_K5.3_C5.2_[C-2G]_[T-1C]_H5.3_A5.1_F5.1_T5.2_[T11C] (ssRNA)
RNA: B1 RNA with C28G, G29C, U30A, A31C, U32A, A33C, G40C, U41A
B16: Id_ii_S2_P5E.3_K5.2_C5.2_[T-1A]_H5.2_A5.1_F5.1_T5.2_[T11C]_[A12T] (ssRNA)
RNA: B1 RNA with G29A, G40C
B17: Id_ii_S2_P5E.3_K5.2_C5.2_[T-1C]_H5.2_A5.1_F5.1_T5.2_[T11A] (ssRNA)
RNA: B1 RNA with G29C, G40A, U41A
B18: Id_ii_S2_P5E.3_K5.2_C5.2_[T-1A]_H5.2_A5.1_F5.1_T5.2_[A12T] (ssRNA)
RNA: B1 RNA with G29A, G40U
B19: Id_ii_S2_P5E.3_K5.2_C5.2_[T-1G]_H5.2_A5.1_F5.1_T5.2_[A12C] (ssRNA)
RNA: B1 RNA with G40U, U41C
B20: Id_ii_S2_P5E.3_K5.2_C5.2_H5.2_A5.1_F5.1_T5.2_[A12C] (ssRNA)
RNA: B1 RNA with G29U, G40U, U41C
B21: Id_ii_S2_P5E.3_K5.2_C5.2_[T-1A]_H5.2_A5.1_F5.1_T5.2_[T11A] (ssRNA)
RNA: B1 RNA with G29A, G40A, U41A
B22: Id_ii_S2_P5E.3_K5.2_C5.2_[T-1C]_H5.2_A5.1_F5.1_T5.2_[T11A]_[A12T] (ssRNA)
RNA: B1 RNA with G29C, G40A
B23: Id_ii_S2_P5E.3_K5.2_C5.2_H5.2_A5.1_F5.1_T5.2_[A12T] (ssRNA)
RNA: B1 RNA with G29U, G40U
B24: Id_ii_S2_P5E.3_K5.2_C5.2_[T-1A]_H5.2_A5.1_F5.1_T5.2_[T11C]_[A12G] (ssRNA)
RNA: B1 RNA with G29A, G40C, U41G
B25: Id_ii_S2_P5E.3_K5.2_C5.2_[T-1A]_H5.2_A5.1_F5.1_T5.2_[T11A]_[A12C] (ssRNA)
RNA: B1 RNA with G29A, G40A, U41C
B26: Id_ii_S2_P5E.3_K5.2_C5.2_H5.2_A5.1_F5.1_T5.2_[T11C]_[A12T] (ssRNA)
RNA: B1 RNA with G29U, G40C
B27: Id_ii_S2_P5E.3_K5.2_C5.2_[T-1G]_H5.2_A5.1_F5.1_T5.2_[T11A]_[A12T] (ssRNA)
RNA: B1 RNA with G40A
B28: Id_ii_S2_P5E.3_K5.2_C5.2_[T-1C]_H5.2_A5.1_F5.1_T5.2_[T11C]_[A12T] (ssRNA)
RNA: B1 RNA with G29C, G40C
B29: Id_ii_S2_P5E.3_K5.2_C5.2_[T-1C]_H5.2_A5.1_F5.1_T5.2_[T11C]_[A12G] (ssRNA)
RNA: B1 RNA with G29C, G40C, U41G
B30: Id_ii_S2_P5E.3_K5.2_C5.2_H5.2_A5.1_F5.1_T5.2_[T11C] (ssRNA)
RNA: B1 RNA with G29U, G40C, U41A
B31: Id_ii_S2_P5E.3_K5.2_C5.2_[T-1G]_H5.2_A5.1_F5.1_T5.2_[A12T] (ssRNA)
RNA: B1 RNA with G40U
B32: Id_ii_S2_P5E.3_K5.2_C5.2_[T-1A]_H5.2_A5.1_F5.1_T5.2_[T11A]_[A12T] (ssRNA)
RNA: B1 RNA with G29A, G40A
B33: Id_ii_S2_P5E.3_K5.2_C5.2_H5.2_A5.1_F5.1_T5.2_[T11A]_[A12T] (ssRNA)
RNA: B1 RNA with G29U, G40A
B34: Id_ii_S2_P5E.3_K5.2_C5.2_[T-1C]_H5.2_A5.1_F5.1_T5.2_[T11C]_[A12C] (ssRNA)
RNA: B1 RNA with G29C, G40C, U41C
B35: Id_ii_S2_P5E.3_K5.2_C5.2_[T-1C]_H5.2_A5.1_F5.1_T5.2_[A12T] (ssRNA)
RNA: B1 RNA with G29C, G40U
B36: Id_ii_S2_P5E.4_K5.3_C5.2_[C-2G]_[T-1C]_H5.3_A5.1_F5.1_T5.2_[T11A]_[A12C] (ssRNA)
RNA: B1 RNA with C28G, G29C, U30A, A31C, U32A, A33C, G40A, U41C
B37: Id_ii_S2_P5E.3_K5.2_C5.2_[T-1C]_H5.2_A5.1_F5.1_T5.2_[T11A]_[A12C] (ssRNA)
RNA: B1 RNA with G29C, G40A, U41C
B38: Id_ii_S2_P5E.3_K5.2_C5.2_H5.2_A5.1_F5.1_T5.2_[T11C]_[A12G] (ssRNA)
RNA: B1 RNA with G29U, G40C, U41G
B39: Id_ii_S2_P5E.3_K5.2_C5.2_[T-1C]_H5.2_A5.1_F5.1_T5.2_[T11A]_[A12G] (ssRNA)
RNA: B1 RNA with G29C, G40A, U41G

What follows are binders tested against T1, PUF4 RNA-binding domain (assay: Mg; RNA-MaP; 20 mM Na-HEPES pH 7.4, 30 mM KOAc, 0.75 mM MgCl2, 0.1% Tween-20, 5% glycerol, 0.1 mg/mL BSA, 2 mM DTT; 25 C; 0.0125-409.6 nM protein). Settings: tags: N-His6-TEV cleaved; C-SNAP kept, Cy3B-labelled; label: tethered on chip by stalled RNA polymerase.

Binder | Kd [nM]
UCUCUUUGUCUUAUUAUCUCUU (ssRNA) [Ia_S1_P5E.1_K5.1_C5.1_H5.1_[A4C]_A5.1_F5.1_T5.1] | 38.3
UCUCUUUGUAUAUUUCUCUU (ssRNA) [Ic_S1_P3E.1_K3.1_C3.1_H3.1_A3.1_F3.1_[A8T]_T3.1] | 4.59
UCUCUUUGUAUUCAUAUCUCUU (ssRNA) [Ib_S1_P5E.1_K5.1_C5.1_H5.1_A5.1_[A7C]_F5.1_[T8A]_T5.1] | 14
UCUCUUUGUACUAUGAUCUCUU (ssRNA) [Ib_S1_P5E.1_K5.1_C5.1_H5.1_A5.1_[T5C]_F5.1_[T9G]_T5.1] | 13.2
UCUCUUUGUAUUUAUAUCUCUU (ssRNA) [Ib_S1_P5E.1_K5.1_C5.1_H5.1_A5.1_[A7T]_F5.1_[T8A]_T5.1] | 5.27
B1 | 38.1
B2 | 1200
B3 | 15.5
B4 | 409
B5 | 92.1
B6 | > 2300
B7 | 166
B8 | 127
B9 | 462
B10 | 112
B11 | 151
B12 | 408
B13 | 230
B14 | 69.4
B15 | 729
B16 | 90.7
B17 | 151
B18 | 223

Binder | Kd [nM]
B19 | 28.4
B20 | 65.7
B21 | 246
B22 | 138
B23 | 110
B24 | 372
B25 | 96.4
B26 | 77.9
B27 | 12.1
B28 | 57.9
B29 | 392
B30 | 103
B31 | 11.9
B32 | 131
B33 | 234
B34 | 87.3
B35 | 79.4
B36 | 451
B37 | 108
B38 | 426
B39 | 887
UCUCUUUGUAAUAUGAUCUCUU (ssRNA) [Ib_S1_P5E.1_K5.1_C5.1_H5.1_A5.1_[T5A]_F5.1_[T9G]_T5.1] | 22.3
